Assays:
[1] = molecular target: the molecule itself; assay: SEC; Superdex 75 10/300 GL column, recombinant DrRuvC; 4 °C; buffers in Supplementary Table S1
[2] = molecular target: T1, DrRuvC (Deinococcus radiodurans, UniProt Q9RX75 1-179); assay: EMSA; 1 mM EDTA; 0-500 nM protein; no significant difference from HJ-0X; 50 mM Tris-HCl pH 7.0, 100 mM NaCl, 1 mM EDTA, 1% glycerol, 50 nM 5'-FAM DNA, on ice 30 min, 5% native PAGE; details: protein: recombinant; tags: N-terminal 6xHis (pET28a NdeI/BamHI); chain copies: 2; label: 5'-FAM on one strand; four-way junction, 12 bp homologous mobile core, 4 strands
T1 sequence: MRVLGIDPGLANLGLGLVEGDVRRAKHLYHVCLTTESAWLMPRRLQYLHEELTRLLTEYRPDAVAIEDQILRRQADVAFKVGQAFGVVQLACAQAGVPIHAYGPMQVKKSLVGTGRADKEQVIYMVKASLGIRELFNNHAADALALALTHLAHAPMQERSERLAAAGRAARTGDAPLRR

[3] = molecular target: T1, DrRuvC; assay: EMSA; 1 mM EDTA; 0-500 nM protein; 50 mM Tris-HCl pH 7.0, 100 mM NaCl, 1 mM EDTA, 1% glycerol, 50 nM 5'-FAM DNA, on ice 30 min, 5% native PAGE; details: protein: recombinant; tags: N-terminal 6xHis (pET28a NdeI/BamHI); chain copies: 2; label: 5'-FAM on one strand; four-way junction, non-homologous core, immobile, 4 strands
[4] = molecular target: T1, DrRuvC; assay: EMSA; no stable shift up to 500 nM protein; 50 mM Tris-HCl pH 7.0, 100 mM NaCl, 1 mM EDTA, 1% glycerol, 50 nM 5'-FAM DNA, on ice 30 min, 5% native PAGE; details: protein: recombinant, tags: N-terminal 6xHis (pET28a NdeI/BamHI), chain copies: 2, label: 5'-FAM on one strand

B1: RuvC from Deinococcus radiodurans (DrRuvC), full-length (enzyme, UniProt Q9RX75 1-179, looked up)
chain: MRVLGIDPGLANLGLGLVEGDVRRAKHLYHVCLTTESAWLMPRRLQYLHEELTRLLTEYRPDAVAIEDQILRRQADVAFKVGQAFGVVQLACAQAGVPIHAYGPMQVKKSLVGTGRADKEQVIYMVKASLGIRELFNNHAADALALALTHLAHAPMQERSERLAAAGRAARTGDAPLRR
notes: Holliday junction resolvase RuvC (DR_0440) of Deinococcus radiodurans, full length; has a C-terminal tail (residues 163-179); residues 1-154 of each monomer are seen in the crystal structure; Cloned into pET28a between NdeI and BamHI; the His tag is said to be on the protein used for crystallisation; also called DR_0440; source: E. coli BL21 (DE3), purified (nickel, desalting, Heparin ion …)
Q: Which “stoichiometry N” value [1] does the source give for B1 here?
A: Its value is 2.

B2: HJ-12X (structured_DNA)
DNA 1: GACGCTGCCGAATTCTGGCTTGCTAGGACATCTTTGCCCACGTTGACCCA
DNA 2: TGGGTCAACGTGGGCAAAGATGTCCTAGCAATGTAATCGTCTATGACGTT
DNA 3: AACGTCATAGACGATTACATTGCTAGGACATGCTGTCTAGAGACTATCGA
DNA 4: TCGATAGTCTCTAGACAGCATGTCCTAGCAAGCCAGAATTCGGCAGCGTC
Q: Does B2 bind [2]?
A: Result: binds

B3: HJ-0X (structured_DNA)
DNA 1: CCACCAGAAACACGCCACAGTTTTTGTTTTGATTGCGAGGCCGTCCTACC
DNA 2: GGTAGGACGGCCTCGCAATCAAAACTTTTTGAGCACGCGAGATGTCAACG
DNA 3: CGTTGACATCTCGCGTGCTCAAAAAAAAAACAGATGCGGAGTGAAGTTCC
DNA 4: GGAACTTCACTCCGCATCTGTTTTTAAAAACTGTGGCGTGTTTCTGGTGG
Q: Does B3 bind [3]?
A: Result: binds

B4: flap (structured_DNA)
DNA 1: CCACCAGAAACACGCCACAGTTTTTGTTTTGATTGCGAGGCCGTCCTACC
DNA 2: GGTAGGACGGCCTCGCAATCAAAACTTTTTGAGCACGCGAGATGTCAACG
DNA 3: CGTTGACATCTCGCGTGCTCAAAAA
Q: Does B4 bind ([4]; flap, 3 strands: S1 3' half with S4 5' half, S4 3' half with S5)?
A: Result: no binding

B5: duplex (dsDNA)
DNA 1: CCACCAGAAACACGCCACAGTTTTTGTTTTGATTGCGAGGCCGTCCTACC
DNA 2: GGTAGGACGGCCTCGCAATCAAAACAAAAACTGTGGCGTGTTTCTGGTGG
Q: Does B5 bind ([4]; blunt)?
A: Result: no binding

B6: Y-junction (structured_DNA)
DNA 1: CCACCAGAAACACGCCACAGTTTTTGTTTTGATTGCGAGGCCGTCCTACC
DNA 2: GGTAGGACGGCCTCGCAATCAAAACTTTTTGAGCACGCGAGATGTCAACG
DNA 3: CGTTGACATCTCGCGTGCTCAAAAAAAAAACTGTGGCGTGTTTCTGGTGG
Q: Does B6 bind ([4]; three-way junction, 3 strands)?
A: Result: no binding

B7: bulge (dsDNA)
DNA 1: CCACCAGAAACACGCCACAGTTTTTGTTTTGATTGCGAGGCCGTCCTACC
DNA 2: GGTAGGACGGCCTCGCAATCTTTTGTTTTTCTGTGGCGTGTTTCTGGTGG
Q: Does B7 bind ([4]; internal unpaired bubble, blunt ends)?
A: Result: no binding
